# Measured values as given in the supplement of paper PMC10126150.
# ± gives the standard deviation of the averaged measurements.
# Test system: ATP
# Assay: switch fluorescence ratio, 500 uM ATP over buffer (Cy3 cluster intensity, sum of 5 cycles each) (fold (ratio)); higher = stronger signal-on switching upon ATP binding; sequences stand for … in TCGTCGGCAGCGTCAGATGTGTATAAGAGACAGTTTTTTTTTTTTTTTTTTTTTTTTT…TC
# Conditions: aptamer strand: ATP DNA aptamer (quencher-CACCTGGGGGAGTATTGCGGAGGAAGG + anchor), 100 nM annealed; ATP concentration: 500 uM
# Procedure, shortened: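 Per cluster, summed Cy3 intensity from the target cycles was divided by that from the buffer cycles to give the fluorescence ratio, then averaged per switch-domain sequence. Clusters outside 100-1000 RFU were excluded. The Cy3-labelled switching-strand clusters, on a modified Illumina MiSeq flow-cell, were annealed to 100 nM quencher-labelled ATP aptamer and imaged in selection buffer, then after 15 min with 500 uM ATP at 22 °C, for five cycles with NaOH stripping and re-annealing between them.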
# 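Further: ATP exposure 15 min at 22 °C before imaging.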
row,Sequence,switch fluorescence ratio
1,CGTGCCCGGA,1.03 ± 0.032
2,CGTGCCCGGT,1.02 ± 0.022
3,CGTGCCGTGG,0.995 ± 0.024
4,CGTGCGGGAA,1.004 ± 0.0069
5,CGTGCTCAGG,1.162 ± 0.011
6,CGTGCTTTTT,1.01 ± 0.018
7,CGTGGAGGTA,0.985 ± 0.041
8,CGTGGAGGTG,1.07 ± 0.036
9,CGTGGCAGGG,0.984 ± 0.033
10,CGTGGGATAT,1.0053 ± 0.00092
11,CGTGGGCGTG,0.9797 ± 0.0013
12,CGTGGGGAAG,0.998 ± 0.023
13,CGTGGGGATC,1.06 ± 0.022
14,CGTGGGGGAG,1.02 ± 0.066
15,CGTGGGGGCT,1 ± 0.019
16,CGTGGGGGTG,0.993 ± 0.029
17,CGTGGTGGGT,0.963 ± 0.025
18,CGTGGTTAGT,0.964 ± 0.023
19,CGTGGTTGAG,0.976 ± 0.018
20,CGTGTAATGG,1.042 ± 0.0015
21,CGTGTATATG,1.01 ± 0.029
22,CGTGTATGGG,1 ± 0.037
23,CGTGTCAGGG,1 ± 0.034
24,CGTGTGGAAA,1.02 ± 0.018
25,CGTGTTAACT,0.992 ± 0.047

row,Sequence,switch fluorescence ratio
1,CGTGTTAGGG,1.0062 ± 0.00077
2,CGTGTTGGAT,0.997 ± 0.062
3,CGTGTTGGG,1 ± 0.028
4,CGTGTTGGGT,0.998 ± 0.048
5,CGTGTTGTAG,1.02 ± 0.017
6,CGTGTTGTGG,0.97 ± 0.067
7,CGTGTTTGTG,0.999 ± 0.067
8,CGTGTTTTTC,0.996 ± 0.026
9,CGTTAAGGGT,0.98 ± 0.031
10,CGTTAAGTGG,0.973 ± 0.04
11,CGTTAATAGC,1.14 ± 0.019
12,CGTTACGAGC,1.04 ± 0.059
13,CGTTACGGGG,0.9788 ± 0.0055
14,CGTTACGTGT,1.026 ± 0.0042
15,CGTTAGATT,0.967 ± 0.011
16,CGTTAGATTG,0.998 ± 0.051
17,CGTTAGGGTA,0.9911 ± 0.003
18,CGTTAGTAAG,0.982 ± 0.033
19,CGTTATCGGA,1 ± 0.041
20,CGTTATGCCT,0.975 ± 0.061
21,CGTTATTGAA,0.9834 ± 0.0067
22,CGTTCAAGTT,1 ± 0.024
23,CGTTCAATGG,1.23 ± 0.05
24,CGTTCCCGTG,0.9811 ± 0.0031
25,CGTTCGACTG,0.97 ± 0.025

row,Sequence,switch fluorescence ratio
1,CGTTCTTCGC,1.07 ± 0.094
2,CGTTGAGGTT,0.979 ± 0.026
3,CGTTGCAGT,0.986 ± 0.011
4,CGTTGCGGGG,0.9751 ± 0.0073
5,CGTTGCTCCC,1.3 ± 0.49
6,CGTTGCTTGG,1 ± 0.046
7,CGTTGGGGAG,1.02 ± 0.03
8,CGTTGGGGT,0.986 ± 0.019
9,CGTTGGGGTT,1.02 ± 0.036
10,CGTTGGGTCT,1 ± 0.018
11,CGTTGGTCGC,1.01 ± 0.016
12,CGTTGTATCT,1 ± 0.035
13,CGTTGTGGGA,1.01 ± 0.038
14,CGTTTAACGT,0.989 ± 0.047
15,CGTTTAATAA,1.008 ± 0.0091
16,CGTTTACCGA,0.942 ± 0.034
17,CGTTTACCTG,0.983 ± 0.0042
18,CGTTTAGGGA,1.004 ± 0.0026
19,CGTTTAGTCA,1.01 ± 0.023
20,CGTTTATGAG,1.022 ± 0.0067
21,CGTTTATGGT,0.967 ± 0.022
22,CGTTTATGTA,0.995 ± 0.04
23,CGTTTATTCA,1.036 ± 0.0079
24,CGTTTCACTA,0.9736 ± 0.0019
25,CGTTTCAGAT,1.02 ± 0.02

row,Sequence,switch fluorescence ratio
1,CGTTTCATGC,1.05 ± 0.056
2,CGTTTCGAAT,0.96 ± 0.027
3,CGTTTCTTTG,0.966 ± 0.019
4,CGTTTGGAGC,0.968 ± 0.031
5,CGTTTGGCAG,1.019 ± 0.0025
6,CGTTTGGCTT,1.01 ± 0.008
7,CGTTTGGTGT,1.0115 ± 1.5e-05
8,CGTTTGTCAG,0.965 ± 0.033
9,CGTTTGTTCC,1.0348 ± 0.00023
10,CGTTTTACCG,1.02 ± 0.032
11,CGTTTTCTGT,0.978 ± 0.024
12,CGTTTTTAGA,0.967 ± 0.031
13,CTAAATATAT,1.03 ± 0.013
14,CTAAATATTA,1.031 ± 0.0049
15,CTAACGGGCT,0.995 ± 0.058
16,CTAACGTATA,1.18 ± 0.036
17,CTAACTGCAT,1.18 ± 0.031
18,CTAACTTATT,1.01 ± 0.013
19,CTAAGAAGCG,1.1 ± 0.17
20,CTAAGAATAG,1.02 ± 0.021
21,CTAAGGGGCT,1.01 ± 0.015
22,CTAAGGGGGT,0.9503 ± 0.0032
23,CTAAGGTTGG,0.974 ± 0.034
24,CTAATAGTT,1 ± 0.048
25,CTAATATCTC,1.016 ± 0.01

row,Sequence,switch fluorescence ratio
1,CTAATCATAA,1 ± 0.052
2,CTAATCTAGC,1.045 ± 0.0017
3,CTAATGGACC,1.01 ± 0.03
4,CTAATGGCTT,0.977 ± 0.033
5,CTAATGGGAG,0.9726 ± 0.0092
6,CTAATGGGTT,0.98 ± 0.037
7,CTAATGTTGT,1.02 ± 0.028
8,CTAATTCGAG,0.9919 ± 0.0026
9,CTAATTGTAG,0.9884 ± 0.0029
10,CTACAATGGA,1 ± 0.029
11,CTACATACGG,1.52 ± 0.02
12,CTACATGACT,1.13 ± 0.025
13,CTACATGTAA,1.03 ± 0.081
14,CTACCCTTTG,1.13 ± 0.038
15,CTACCGCCTA,1.39 ± 0.048
16,CTACGGGATT,1.33 ± 0.43
17,CTACTCCGTT,1.29 ± 0.068
18,CTACTGAAGG,0.983 ± 0.014
19,CTACTTATTT,1.02 ± 0.024
20,CTACTTGATA,0.978 ± 0.017
21,CTAGATTTGA,1 ± 0.024
22,CTAGCATCCG,1.03 ± 0.016
23,CTAGGAGGGA,0.98 ± 0.013
24,CTAGGATGTG,0.997 ± 0.031
25,CTAGGATTGA,0.992 ± 0.041

row,Sequence,switch fluorescence ratio
1,CTAGGCTTTT,1.02 ± 0.079
2,CTAGGGAGAG,0.9912 ± 0.0069
3,CTAGGGGATT,1.02 ± 0.011
4,CTAGGGGCTG,0.946 ± 0.025
5,CTAGGGGGTA,0.971 ± 0.035
6,CTAGGGGGTG,1.03 ± 0.062
7,CTAGGGGTTC,1.01 ± 0.046
8,CTAGGGTTAT,1.006 ± 0.0025
9,CTAGGTGTGG,1.04 ± 0.057
10,CTAGTAGAAG,1.01 ± 0.016
11,CTAGTATGTT,0.979 ± 0.02
12,CTAGTCAAGA,1.027 ± 0.0066
13,CTAGTCAGGT,1.018 ± 0.0012
14,CTAGTCTTTT,0.982 ± 0.031
15,CTAGTTAGGC,0.9844 ± 0.0091
16,CTAGTTTGGA,1 ± 0.011
17,CTATAACGGG,0.981 ± 0.0067
18,CTATAAGTCT,1.022 ± 0.0033
19,CTATAATGTT,0.9949 ± 0.0059
20,CTATACGGGG,0.976 ± 0.025
21,CTATAGGAGA,1.01 ± 0.044
22,CTATATAAAT,0.997 ± 0.059
23,CTATATAGGT,1.014 ± 0.0069
24,CTATCCGGAC,1.25 ± 0.014
25,CTATCCTATA,0.988 ± 0.022

row,Sequence,switch fluorescence ratio
1,CTATCGGGTA,0.9966 ± 0.0097
2,CTATCTGTAG,0.994 ± 0.03
3,CTATGCAATT,3.33 ± 0.29
4,CTATGCGTTT,0.989 ± 0.025
5,CTATGGATAC,1.61 ± 0.18
6,CTATGGGGGT,0.997 ± 0.024
7,CTATGGGTCC,1.02 ± 0.026
8,CTATGTATGT,1.01 ± 0.022
9,CTATGTATTT,1.002 ± 0.0011
10,CTATGTGATT,1.025 ± 0.0017
11,CTATTGAAGT,0.9838 ± 0.0073
12,CTATTGGTTT,0.9746 ± 0.0021
13,CTATTGTGGA,0.999 ± 0.019
14,CTATTTTGGT,0.9784 ± 0.0079
15,CTCAAAAACA,1.02 ± 0.028
16,CTCAAGGGGC,1.14 ± 0.11
17,CTCAATACTT,1.786 ± 0.0034
18,CTCACCATGA,1.03 ± 0.035
19,CTCACTTGGG,1.024 ± 0.0012
20,CTCAGAATAG,1.37 ± 0.075
21,CTCAGAATAT,1.046 ± 0.0086
22,CTCAGAGTTT,1 ± 0.012
23,CTCAGGAGGG,0.997 ± 0.047
24,CTCAGGCAAT,2.61 ± 0.45
25,CTCAGGGGGT,0.9759 ± 0.007

row,Sequence,switch fluorescence ratio
1,CTCAGTAGTT,1.018 ± 0.0053
2,CTCAGTTTCT,1.02 ± 0.03
3,CTCATAACAG,0.996 ± 0.015
4,CTCATAATTT,0.993 ± 0.037
5,CTCATATAGA,0.991 ± 0.045
6,CTCATCGGTC,1.02 ± 0.035
7,CTCATCGTTC,0.99555 ± 0.00034
8,CTCCAAAGCG,1.19 ± 0.032
9,CTCCATCGGG,1.31 ± 0.033
10,CTCCCTTCGA,1.17 ± 0.036
11,CTCCGATGAT,3.03 ± 0.62
12,CTCCGTGGGA,1.9 ± 0.68
13,CTCCTACAGC,1.32 ± 0.2
14,CTCCTAGTTT,1.03 ± 0.02
15,CTCCTCTACC,1.64 ± 0.048
16,CTCCTTTTAT,1.03 ± 0.029
17,CTCGAAAAAA,1.05 ± 0.014
18,CTCGAAGCG,1.04 ± 0.034
19,CTCGACGGGG,0.975 ± 0.035
20,CTCGATTTAT,0.9951 ± 0.0086
21,CTCGCCGCGG,1.08 ± 0.038
22,CTCGCCGGGG,1.06 ± 0.013
23,CTCGCTGCGT,1.024 ± 0.0082
24,CTCGGCGCTT,1.05 ± 0.02
25,CTCGGCGGAG,1.026 ± 0.0082
